Test results taken from publication PMC10980035 (bioRxiv, 2024).

What was measured:
[1] = target: T1, Retriever complex (VPS35L, VPS26C, VPS29) (human, UniProt Q7Z3J2 1-963; O14972 1-297; Q9UBQ0-2 1-186); assay: pull-down
[2] = target: T1, Retriever complex (VPS35L, VPS26C, …); assay: pull-down; remark: listed apart in the source

T1 sequence (Q7Z3J2 whole entry, chain 1 of 2): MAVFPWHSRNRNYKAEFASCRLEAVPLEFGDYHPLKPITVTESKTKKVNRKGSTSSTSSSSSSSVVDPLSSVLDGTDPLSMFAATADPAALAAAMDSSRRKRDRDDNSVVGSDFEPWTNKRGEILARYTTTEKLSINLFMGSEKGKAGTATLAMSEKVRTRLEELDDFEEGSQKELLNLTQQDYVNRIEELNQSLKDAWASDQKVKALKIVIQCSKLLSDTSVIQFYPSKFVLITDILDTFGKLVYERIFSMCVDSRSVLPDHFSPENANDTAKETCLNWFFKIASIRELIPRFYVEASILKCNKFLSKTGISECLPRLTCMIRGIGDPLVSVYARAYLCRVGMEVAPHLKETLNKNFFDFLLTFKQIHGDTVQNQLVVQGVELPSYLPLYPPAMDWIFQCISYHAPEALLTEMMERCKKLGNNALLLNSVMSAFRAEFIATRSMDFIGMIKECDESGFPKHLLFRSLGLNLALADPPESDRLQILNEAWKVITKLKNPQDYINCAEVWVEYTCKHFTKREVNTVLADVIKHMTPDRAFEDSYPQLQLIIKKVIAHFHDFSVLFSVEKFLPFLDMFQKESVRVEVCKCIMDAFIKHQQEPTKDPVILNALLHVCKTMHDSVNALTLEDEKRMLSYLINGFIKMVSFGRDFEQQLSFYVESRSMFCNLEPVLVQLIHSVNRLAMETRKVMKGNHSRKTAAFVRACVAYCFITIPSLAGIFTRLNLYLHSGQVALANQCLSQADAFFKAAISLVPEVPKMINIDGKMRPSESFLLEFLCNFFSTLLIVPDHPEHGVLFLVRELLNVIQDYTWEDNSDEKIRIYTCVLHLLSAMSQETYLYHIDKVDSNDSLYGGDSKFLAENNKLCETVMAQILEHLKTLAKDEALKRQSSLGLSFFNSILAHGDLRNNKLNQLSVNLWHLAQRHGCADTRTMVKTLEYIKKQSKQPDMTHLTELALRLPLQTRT
T1 sequence (O14972 whole entry, chain 2 of 2): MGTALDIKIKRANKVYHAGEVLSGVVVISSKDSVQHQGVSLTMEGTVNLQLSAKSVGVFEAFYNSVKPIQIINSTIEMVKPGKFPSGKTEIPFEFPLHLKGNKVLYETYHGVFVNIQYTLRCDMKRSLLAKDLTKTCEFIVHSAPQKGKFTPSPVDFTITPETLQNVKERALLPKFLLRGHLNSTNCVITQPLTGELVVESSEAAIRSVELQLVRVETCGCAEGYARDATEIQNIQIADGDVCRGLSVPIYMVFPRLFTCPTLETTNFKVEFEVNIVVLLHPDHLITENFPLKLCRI

Binder | Kd [1] | binding result [2]
ASASDVHGNFAFEGIGDEDL [GST-SNX17 CT (GST-tagged tail peptide, last 20 residues of SNX17)] | ~110 nM | 
SVYLVNFRCCRSHDLCNEDL [GST-tagged CT acidic tail of PATE1 (last 20 amino acids)] |  | binds
SKIKIAKDDCVFGNIKEEDL [GST-tagged CT acidic tail of SNX31 (last 20 amino acids)] |  | binds
